Data set [1] has as its target T1, MBP-Orf (Bacteriophage lambda, UniProt P03765 1-146).
T1 sequence: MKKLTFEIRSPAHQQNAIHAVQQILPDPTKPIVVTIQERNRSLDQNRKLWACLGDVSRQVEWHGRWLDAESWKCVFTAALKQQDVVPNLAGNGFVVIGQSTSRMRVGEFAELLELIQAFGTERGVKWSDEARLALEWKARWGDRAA
Briefly: EMSA; 5 mM EDTA; EMSA: 50 mM Tris-HCl pH 8.0, 5 mM EDTA (or 1 mM MgCl2), 1 mM DTT, 5% glycerol, 100 ug/ml BSA, on ice 15 min, 4% PAGE; anisotropy: 100 mM Tris-HCl pH 7.0, 10 nM. The note with it: protein: recombinant; tags: N-terminal MBP; chain copies: 2; label: 5'-32P; single strand. On the technique in general: In EMSA bound probe runs differently from free probe, usually more slowly.

Data set [2] has as its target T2, MBP-Orf R103E (Bacteriophage lambda, UniProt P03765 1-146, R103E).
T2 sequence: T1 sequence with R103E
Description: EMSA; 5 mM EDTA; up to 500 nM; EMSA: 50 mM Tris-HCl pH 8.0, 5 mM EDTA (or 1 mM MgCl2), 1 mM DTT, 5% glycerol, 100 ug/ml BSA, on ice 15 min, 4% PAGE; anisotropy: 100 mM Tris-HCl pH 7.0, 10 nM. The note with it: protein: recombinant; tags: N-terminal MBP; chain copies: 2; label: 5'-32P; single strand.

The target of data set [3] is T3, MBP-YbcN (Escherichia coli cryptic prophage DLP12 …, UniProt Q47269 1-151).
T3 sequence: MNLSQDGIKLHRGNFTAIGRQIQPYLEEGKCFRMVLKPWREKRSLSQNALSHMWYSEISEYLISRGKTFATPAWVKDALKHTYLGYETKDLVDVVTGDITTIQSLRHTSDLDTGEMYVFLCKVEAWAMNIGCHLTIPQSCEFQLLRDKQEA
Briefly: EMSA; 5 mM EDTA; lower affinity than MBP-Orf; EMSA: 50 mM Tris-HCl pH 8.0, 5 mM EDTA (or 1 mM MgCl2), 1 mM DTT, 5% glycerol, 100 ug/ml BSA, on ice 15 min, 4% PAGE; anisotropy: 100 mM Tris-HCl pH 7.0, 10 nM. To be noted: protein: recombinant; tags: N-terminal MBP; chain copies: 2; label: 5'-32P; single strand.

The target in data set [4] is T3, MBP-YbcN. Description: EMSA; 5 mM EDTA; three complexes; EMSA: 50 mM Tris-HCl pH 8.0, 5 mM EDTA (or 1 mM MgCl2), 1 mM DTT, 5% glycerol, 100 ug/ml BSA, on ice 15 min, 4% PAGE; anisotropy: 100 mM Tris-HCl pH 7.0, 10 nM. To be noted: protein: recombinant; tags: N-terminal MBP; chain copies: 2; label: 5'-32P on strand 1; blunt.
For data set [5], the target named is T1, MBP-Orf. Description: fluorescence anisotropy; some preference over duplex control; data varied; EMSA: 50 mM Tris-HCl pH 8.0, 5 mM EDTA (or 1 mM MgCl2), 1 mM DTT, 5% glycerol, 100 ug/ml BSA, on ice 15 min, 4% PAGE; anisotropy: 100 mM Tris-HCl pH 7.0, 10 nM. To be noted: protein: recombinant; tags: N-terminal MBP; chain copies: 2; label: 3'-fluorescein on strand 1; blunt, central single T:G mismatch. (In general: In fluorescence polarisation assays a small probe gives low polarisation when free and higher when bound to something large.)

The target in data set [6] is T3, MBP-YbcN. Briefly: EMSA; 5 mM EDTA; no preference over DS60; EMSA: 50 mM Tris-HCl pH 8.0, 5 mM EDTA (or 1 mM MgCl2), 1 mM DTT, 5% glycerol, 100 ug/ml BSA, on ice 15 min, 4% PAGE; anisotropy: 100 mM Tris-HCl pH 7.0, 10 nM. To be noted: protein: recombinant; tags: N-terminal MBP; chain copies: 2; label: 5'-32P on strand 1; blunt, central single G:G mismatch.

Where a chain is given by its changes, count along the chain named.

In the case of GGCGACGTGATCACCAGATGATTGCTAGGCATGCTTTCCGCAAGAGAAGC (ssDNA) [SS50], the binding result in data set [1] was “binds”; in data set [2], “no binding”; in data set [3], “binds”.

B1: DS60 (dsDNA)
DNA 1: TTTGGTCTAACTTTACCGCTACTAAATGCCGCGGATTGGTTTCGCTGAATCAGGTTATTA
DNA 2: TAATAACCTGATTCAGCGAAACCAATCCGCGGCATTTAGTAGCGGTAAAGTTAGACCAAA
With B1, the binding result in data set [4] was “binds”.

B2: MMT:G-fluorescein (dsDNA)
DNA 1: B1 DNA 1
DNA 2: B1 DNA 2 with C28T
For B2, the binding result in data set [5] is recorded as “binds”.

B3: MMG:G (dsDNA)
DNA 1: B1 DNA 1
DNA 2: B1 DNA 2 with C28G
Regarding B3, in data set [6], the binding result is recorded as “binds”.

Values taken from paper PMC4118853, “Phage Orf Family Recombinases: Conservation of Activities and Involvement of the Central Channel in DNA Binding” (PLoS ONE, 2014).
